Experimental data: article PMC12889889

molecular target: FcγRIIIa (V158 variant)

“Riabni (rituximab-arrx), lot 1141263, untreated (antibody)” and “Rituxan (rituximab), lot 3575428, untreated (antibody)” are within 1.5-fold of each other in ADCC Reporter Bioassay (WIL2-S target cells, Jurkat/NFAT-luc + FcγRIIIa V158 effector cells), EC50 of luciferase induction: 13.6 ng/mL for the first, 9.3 ng/mL for the second.

Compared with “Ruxience (rituximab-pvvr), lot GN4445, untreated (antibody)”, “Truxima (rituximab-abbs), lot 1B1011, untreated (antibody)” is 1.5-fold higher in ADCC Reporter Bioassay (WIL2-S target cells, Jurkat/NFAT-luc + FcγRIIIa V158 effector cells), EC50 of luciferase induction: 6.06 ng/mL for the first, 9.09 ng/mL for the second.
